According to the nanobody polyreactivity screen of Harvey et al. (2022):

experiment: yeast display, Sf9 membrane polyspecificity reagent, FACS + sequencing; frameworks hold sequencing errors
Method in brief: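 Nanobodies from a synthetic yeast display library (Saccharomyces cerevisiae BJ5465), induced 36–48 hours with galactose, were stained 1 hour at 4 °C with 10% biotinylated, detergent-solubilized Sf9 membrane reagent, enriched on streptavidin microbeads, then FACS-sorted. Anti-HA (expression) and streptavidin (reagent binding) fluorescence set low and high (top ~1%) gates. Polyreactivity labels come from the gate of origin. Genes were colony-PCR amplified, MiSeq 2 × 250 sequenced and filtered by CDR length.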

Row | Sequence | polyreactivity (PSR sort gate)
1 | QVQLVESGGGLVHAGGFLRLSCAASGRIFRWNAMGWYRQAPGKERELVAAISWNGGRTYYADSVKGRFTISRDNAKNRVYFQMNSLKPEDTAVYYCAAPHSVPDLHSGDYWGQGTQVTVSS | low polyreactivity
2 | QVQLVESGGGLVHAGGPLRLSCAPSGFIFRGYAMGWYRQAPGKEREFVAAISGSGGSTYYADSVKGRFTISRDNAKNTVFLQMNSLKTDDTAVYYCNARFWGVWGGYDYWGQGTQVTVSS | high polyreactivity
3 | QVQLVESGGGLVHAGGRLRLRCAASGSIFGYYAMAWYRHAPGKETELVAAISRRGGRTYYADSVKGRFTISRDNAKNTVYLQMNSLKPEDTAVYYCAKDRYYSELQYPYYRGDYWGQGTQVTVSS | high polyreactivity
4 | QVQLVESGGGLVHAGGSHRLSCAASGLIFYDNMGWYRQAPGKERELVAAISSSGGSTSYADSVKGRFTISRDNAKNTVYLQMNSLKPEDTAVYYCAADSYPAYLGFVGFDYWGQGTQVTVSS | low polyreactivity
5 | QVQLVESGGGLVHAGGSIRLSCAASGRIFDYNVMGWYRQAQGTERELVAAISWDGDSTYYADSVKGRFTISRDNAKHTVYLQKNSLKPEDTAVYYCNRVEGRTRWADEMNYWGQGTQVTVSS | low polyreactivity
6 | QVQLVESGGGLVHAGGSLLLSCAASRFIFASNAMGWYRKAPAKERELVAAISSSGGRTYYADSVKGRFTISRDNAKNSVYLQMNSLKPEDTAVYYCAADWLVTYDYWGQGTQVTVSS | high polyreactivity
7 | QVQLVESGGGLVHAGGSLRIICAASGRIFYIYAMGWYRQAPGKERELVAAITKSGGSTTHYADSVKGRFTISRDNAKNTVYLQMNSLKPEDTEVYYCAVDARYSRSKYGYWGHGTQVTVSS | high polyreactivity
8 | QVQLVESGGGLVHAGGSLRLRCAASGSIFYDNAMGWYTQAPWKERELVASIRWSGDSTYYADSVKGRFTISRDNAKNTVYLQMTSLKPEDTAVYYCAADPVEPYFTAIAYGYWGQGTQVTVSS | low polyreactivity
9 | QVQLVESGGGLVHAGGSLRLSCAACGRIFSRNAMGWYRQAPWKERELVAAITWRGGSTYYADSVKGRFTSSRDNAKNTVYLQMNSLKPEDTAVYYCNRDYRQYGYAYSGRFYWGHGTQVTVSS | high polyreactivity
10 | QVQLVESGGGLVHAGGSLRLSCAASARIFIAYMAWYRQAPGKERELVAAIDSGASTYYADSVKGRFTISRDNANNTVYLQMNSLKPEDTAVYYCAADVVYDYGGMDYWGQGTQVTVSS | low polyreactivity
11 | QVQLVESGGGLVHAGGSLRLSCAASGFIFARYAMGWYRQAPGKERELVAAINLSGGSTYYADSVKGRFTISRDNAKNTVYLQMNSLKPEDTAVYYCAATDPPYDAFEAKIDYQDFDYWGQGTQVTVSS | low polyreactivity
12 | QVQLVESGGGLVHAGGSLRLSCAASGFILTGNAMGWYRQAPGKERELVAAITSGGRTYYADSVKGRFTISRDNAKNTVYLQMNSLKPEETAVYYCAARRRWSQTPFDYWGQGTQVTVSS | high polyreactivity
13 | QVQLVESGGGLVHAGGSLRLSCAASGFTFRWYAMGWYRQAPGKERELVARIRGGGSTNYADSVKGRFTISRDNAKNTVYLQMNSLKPEDTAVYYCNTAYPWPPVKYDYWGQGTQVTVSS | high polyreactivity
14 | QVQLVESGGGLVHAGGSLRLSCAASGFTLHQYTMGWYRQAPGKERELVAAISDRGTRTYYADSVKGRFTISRDNAKNTVYLQMNSLKPEDPAVYYCAAYIAGVTGGSGYYYWGKGTQVTVSS | high polyreactivity
15 | QVQLVESGGGLVHAGGSLRLSCAASGIIFGVYAMGWYRQAPGKERELVAAISWSGGSTYYADSVKGRFTISRDNAKNNVYLQMNSLKPEDTAVYYCAADAYPHEDYYWGQGNQVTVSS | high polyreactivity
16 | QVQLVESGGGLVHAGGSLRLSCAASGIIFQYYLMGSYRPAPGKERELVAAIDKSGGSTYYADSVKGRFTISRDNAKNTVYLQMNSLKPEDTAVYYCAATSYAHKYYGYFGAIKYEYWGQGTQVTVSS | low polyreactivity
17 | QVQLVESGGGLVHAGGSLRLSCAASGLTFKRYAMGWSRQAPGKERELVASITGNGGSTYYADSVKGRFTISRDNAKNTVYSQMNSLKPEDTAVYYCNARRYVRTSQQPLYDYWGQGTQVTVSS | high polyreactivity
18 | QVQLVESGGGLVHAGGSLRLSCAASGRILGKYANGWYRQAPGKERELVAAINWRGGRTYADSVKGRFTISRDNSKNNVYLQMNSLKPEDTAVYYCAAVWQSPRPGYGYWGQGTQVTVSS | high polyreactivity
19 | QVQLVESGGGLVHAGGSLRLSCAASGRISSSYAMGWYRQAPGKERELVAAITSRGGSTYYADSVKGRFTISRDNAKNTVYLQMNSLKPEDTAVYYCAKYQYYRSTDDYWGQGTQVTVSS | low polyreactivity
20 | QVQLVESGGGLVHAGGSLRLSCAASGRTFAQNAMRRYRQAPWKERELVAAIRNGGRTNYADSVKGLFTISRDNAKNTVYLQMNSLKPEDTAVYYCAVKFNNRAKYGYWGQGTQVTVSS | high polyreactivity
21 | QVQLVESGGGLVHAGGSLRLSCAASGRTFAYNAMGWYRQAPGKERELVAAITRSTGNTYYADSVKGRFTISRDNAKNTVYLQMNSLKPEDTAVYYCAAAYAYWRKYDYWGQGTQVTVSS | high polyreactivity

Row | Sequence | polyreactivity (PSR sort gate)
22 | QVQLVESGGGLVHAGGSLRLSCAASGRTFIAYAMGWYRQAPGKERELVADISLRGGSTYYADSVKGRFTISRDNAKNTVYLQMNSLKPEDTAVYYCNTRRLHGWLYGYEYWGQGTQVTVSS | low polyreactivity
23 | QVQLVESGGGLVHAGGSLRLSCAASGRTFSAYAMGWYRQAPGKERELVAAISRSGGRTYYADSVKGRFTISRDNAKNTVYLQMNSLKPEDTAVYYCNALNLPDNQGTYDYWGQGTQVTVSS | high polyreactivity
24 | QVQLVESGGGLVHAGGSLRLSCAASGRTFVLYVMGWYRQAPGKETEFVADINAGGGSTYYADSVKGRFTISRDNAKNTVYLQMNSLKPEDTAVYYCAATRVLGQLFRFGYWGQGTQVSVSS | low polyreactivity
25 | QVQLVESGGGLVHAGGSLRLSCAASGRTFWSYAMGWYRQAPGKERELVAAIRTSDGITYYADSVKGRFTISRDNAKNTVYLQMNSLKPEDTAVYYCAAENWYKYDYWGQGTQVTVSS | low polyreactivity
26 | QVQLVESGGGLVHAGGSLRLSCAASGRTFWTYAMGWYRQAPGKERELVAAISSGGSTYYADSVKGRFTISRDNAKNTVYLQMNSLKPEDTAVYYCATRVYGGYGYWGQGTQVTVSS | high polyreactivity
27 | QVQLVESGGGLVHAGGSLRLSCAASGRTFYANAMGWYRQAPGKERELVAAISSRSGTTHYADSEKGRFTISRDNAKNSVYLQMNSLKPEETAVYYCAVRYYRRRYDYWGQGTQVTVSS | low polyreactivity
28 | QVQLVESGGGLVHAGGSLRLSCAASGRTFYRYGMGWYREARGKERELVAAISNRGGTTYYADSLKGRFTISRDNAKNTVYLQMNSLKPEDTAVYYCAADSVYAEYDSWGQGTQVTVSS | low polyreactivity
29 | QVQLVESGGGLVHAGGSLRLSCAASGSIFEGYAMGWSRQAPGKERELVAAISRSGGSTYYADSVKGRFTISRDNAKNSVYLQINRLTPEATAVYYCAARKAIDYQGRHDHWGQGTQVTVSS | low polyreactivity
30 | QVQLVESGGGLVHAGGSLRLSCAASGSIFGFYTMGWYRQAPGKERELVAAITWSGGRTYYADSVKGRFTISRDNAKNTVYLQMNSLKPEDTAVYYCNRDGRSRWYYASAGYNYWGQGTQVTVSS | high polyreactivity
31 | QVQLVESGGGLVHAGGSLRLSCAASGSIFRRNAMGMSRQAPGKERELVASITSGASTYYADSVKGRFTISRDNAKNTVYIQMNSLKPEDTAVYYCAADIFVTAFASPMDYWGQGTQVTVSS | low polyreactivity
32 | QVQLVESGGGLVHAGGSLRLSCAASGSIFVVYTMGWYIQAPGKERELVADISASGGRTYYADSVKGRFTISSDNAKNTVYLKMNRLKPEDTAVYYCARVWYSSYSSESYSDHDYWGQGTQGTVSS | high polyreactivity
33 | QVQLVESGGGLVHAGGSLRLSCAASGSIFYPYAMGWYRKAPGKERELVAAISRSGGRTYYADSVKGRFTISRDNAKNTVYLQMNSLKPEDTAVYYCNAYYPGNGPRSTSTRYEYWGQGTQVTVSS | high polyreactivity
34 | QVQLVESGGGLVHAGGSLRLSCAASGSILNGYVMGWYRQAPGKERELVGTYYADSVKGRFTISRDNAKNTVYLQMNSLKPEDTAVYYCAADIGDGSEFDYWGLGTQVTVSS | low polyreactivity
35 | QVQLVESGGGLVHAGGSLRLSCAASGSILSSYAMGWYRQAPGKERELVAAINSGGSTNYADSVKGRFTISRDNAKNTVYLQMNSLKAEDTAVYYCNADYSYGTTLDYWGQGTHVTVSS | low polyreactivity
36 | QVQLVESGGGLVHAGGSLRLSCAASGSIYPSYGMGWYRQAPGKERELVARITSGGGTNYADSVKGRFTISRDNAKNTVYLQMNSLKPEDTAVYYCAAQSTTIEDGWYVEYNYWGQGTQVTVSS | high polyreactivity
37 | QVQLVESGGGLVHAGGSLRLSCAASGSIYPYYAMGWYRQAPGKERELVAVISRGGVRTYYADSVKGRFTISRDNAKNTVYLQMNSLKTEDTAVYYCAAGYPYGVDYWGQGTQVTVSS | high polyreactivity
38 | QVQLVESGGGLVHAGGSLRLSCAASGSTFARYAMGWYRPAPGKERELVAVIRSGGSTNYADSVKGRFTISRDNAKNTVYLQMNSLKPEDTAGAADQWTIHRWATYGYWGQGTQVTVSS | low polyreactivity
39 | QVQLVESGGGLVHAGGSLRLSCAASGSTFDVYVMGWYRQAPGKEREMVAAISSGDDTNYADSVKGRFTISRDNAKNTVYLQMNSLKPEDTEVYYCNADYFDYSRPRYDYWGQGTQVTVSS | low polyreactivity
40 | QVQLVESGGGLVHAGGSLRLSCAASGSTFGINAMGWYRQAPGKERELVAAITRGGSTKYADSVKGRFTISRDNAKKTVYLQMNSLKPEDTAVYYCNKRPWHRSSRPFYYWGQGTQVTVSS | high polyreactivity
41 | QVQLVESGGGLVHAGGSLRLSCAASGSTFKGYAMGWYRQAPGKERELVASIRSSSGSTYYADSVKGRFTISRDNAKNTVYLQMNSLKPEDTAVYYCATALWVRYYGQGGYIRRYDYWGQGTHVTVSS | high polyreactivity
